Patent US20240002497A1 (Merck Sharp & Dohme, published 2024)

Experiments:
huNav1.7α+β1 [1] = target: T1, huNav1.7α+β1 (human, UniProt Q15858 1-1988; Q07699 19-218); assay: cell-based or functional assay
rhNav1.7α+β1-β2-β3 [2] = target: T2, rhNav1.7α+β1-β2-β3 (rhesus monkey α subunit with human β …); assay: cell-based or functional assay
huNav1.7α = target: T3, huNav1.7α (human, UniProt Q15858 1-1988); assay: binding FACS, HEKa cells
T3 construct: HEK cells expressing the α subunit alone; also called HEKa; HEK huNav1.7α

huNav1.7α+β1 [3] = target: T1, huNav1.7α+β1; assay: binding FACS, HEKa/β1 cells
rhNav1.7α+β1-β2-β3 [4] = target: T2, rhNav1.7α+β1-β2-β3; assay: binding FACS, CHO FlpIn cells
huNav1.7α (HEKa) = target: T4, huNav1.7α (HEKa) (human, UniProt Q15858 1-1988); assay: binding FACS, HEKa cells
T4 construct: also called HEKa huNav1.7α
Procedure: Binding of the ISVDs to cell-expressed Nav1.7α was detected via murine anti-Flag (Sigma, catalog #F1804). Briefly, cells were resuspended in FACS buffer (PBS, 10% FBS, NaN₃) and transferred to a 96-well V-bottom plate at 1×10^5 cells/well. Purified FLAG3-tagged ISVD was diluted in FACS buffer and added to the cells for 30 minutes at 4° C. […] Prior to the read-out, the samples were resuspended in 1 μg/mL propidium iodide (Sigma, catalog #P4170) to exclude dead cells. Between each step, the cells were centrifuged for 5 minutes at 200 grams and washed with 100 μL/well FACS buffer.

huNav1.7α + β1 (HEKa/β1) = target: T5, huNav1.7α + β1 (HEKa/β1) (human, UniProt Q15858 1-1988; Q07699 19-218); assay: binding FACS, HEKa/β1 cells
T5 construct: also called HEKa/β1 huNav1.7α
Procedure, shortened: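 Flow cytometry read-out of anti-Flag signal on propidium iodide-negative cells measured ISVD binding. Purified FLAG3-tagged ISVD, diluted in PBS with 10% FBS and NaN₃, was applied to the cells for 30 minutes at 4° C.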

B1: F010300880 (VHH)
VHH: EVQLVESGGGLVQPGGSLRLSCAASGPVFNINRMAWYRRAPGKQRELVASSTPGGDTNYADSVKGRFTISRDNAKRVYLQMNSLTPEDTAVYYCRWLLQPSIYDISRTYWGQGTLVTVSS
notes: vs F0103275B05: S27P, I28V, S33R, N53P, S56D, N93R, A94W
For B1, the “single pulse IC50” value (huNav1.7α+β1 [1]) was 27 nM, the “single pulse IC50” value (rhNav1.7α+β1-β2-β3 [2]) was 120 nM and the EC50 (huNav1.7α) was 15 nM. For the same binder, the EC50 (huNav1.7α+β1 [3]) was 44 nM and the EC50 (rhNav1.7α+β1-β2-β3 [4]) was 26 nM.

B2: F010301657 (VHH)
VHH: EVQLVESGGGLVQPGGSLRLSCAASVRPFSTSAMGWFRQAPEKEREAVAGILWNGIVTYYADSVKGRFTISRDNAKNEVYLQMNKLKPEDTAVYYCALDRAYQGRSFSAKEYEYWGQGTLVTVSS
In the case of B2, the EC50 (huNav1.7α (HEKa)) is reported as 20 nM and the EC50 (huNav1.7α + β1 (HEKa/β1)) is reported as 16 nM.

B3: F010301662 (VHH)
VHH: EVQLVESGGGLVQPGGSLRLSCAASVRPFSTSAMGWFRQAPEKEREAVAGILWNGIVTYYADSVKGRFTISRDNAKNEVYLQMNKLKPEDTAVYYCALDRAYQGRSFSAYEYEYWGQGTLVTVSS
Work on B3 yielded an EC50 (huNav1.7α (HEKa)) of 19 nM and an EC50 (huNav1.7α + β1 (HEKa/β1)) of 17 nM.

B4: F010301665 (VHH)
VHH: EVQLVESGGGLVQPGGSLRLSCAASVRPFSTSAMGWFRQAPEKEREAVAAILWNGIVTYYADSVKGRFTISRDNAKNEVYLQMNKLKPEDTAVYYCALDRAYGGRSFSAKEYEYWGQGTLVTVAA
Binder B4 has an EC50 (huNav1.7α (HEKa)) of 8.8 nM and an EC50 (huNav1.7α + β1 (HEKa/β1)) of 11 nM.

B5: F010301666 (VHH)
VHH: EVQLVESGGGLVQPGGSLRLSCAASVRPFSTSAMGWFRQAPEKEREAVAAILWNGIVTYYADSVKGRFTISRDNAKNEVYLQMNKLKPEDTAVYYCALDRDYQGRSFSAKEYEYWGQGTLVTVSS
B5 gave an EC50 (huNav1.7α (HEKa)) of 10 nM and an EC50 (huNav1.7α + β1 (HEKa/β1)) of 14 nM.

B6: F010301663 (VHH)
VHH: EVQLVESGGGLVQPGGSLRLSCAASVRPFSTSAMGWFRQAPEKEREAVAGILWNGIVTYYADSVKGRFTISRDNAKNEVYLQMNKLKPEDTAVYYCALDRAYGGRSFSAKEYEYWGQGTLVTVSS
Binder B6 has an EC50 (huNav1.7α (HEKa)) of 13 nM and an EC50 (huNav1.7α + β1 (HEKa/β1)) of 14 nM.

B7: F010301664 (VHH)
VHH: EVQLVESGGGLVQPGGSLRLSCAASVRPFSTSAMGWFRQAPEKEREAVAGILWNGIVTYYADSVKGRFTISRDNAKNEVYLQMNKLKPEDTAVYYCALDRDYQGRSFSAKEYEYWGQGTLVTVSS
With B7 the EC50 (huNav1.7α (HEKa)) was 13 nM and the EC50 (huNav1.7α + β1 (HEKa/β1)) was 18 nM.

B8: F010301659 (VHH)
VHH: EVQLVESGGGLVQPGGSLRLSCAASVRPFSTSAMGWFRQAPEKEREAVAAILWNGIVTYYADSVKGRFTISRDNAKNEVYLQMNKLKPEDTAVYYCALDRAYGGRSFSAYEYEYWGQGTLVTVSS
For B8, the EC50 (huNav1.7α (HEKa)) was 11 nM and the EC50 (huNav1.7α + β1 (HEKa/β1)) was 12 nM.

B9: F010301661 (VHH)
VHH: EVQLVESGGGLVQPGGSLRLSCAASVRPFSTSAMGWFRQAPEKEREAVAAILWNGIVTYYADSVKGRFTISRDNAKNEVYLQMNKLKPEDTAVYYCALDRDYGGRSFSAKEYEYWGQGTLVTVSS
In the case of B9, the EC50 (huNav1.7α (HEKa)) is reported as 16 nM and the EC50 (huNav1.7α + β1 (HEKa/β1)) is reported as 18 nM.

B10: F010301658 (VHH)
VHH: EVQLVESGGGLVQPGGSLRLSCAASVRPFSTSAMGWFRQAPEKEREAVAAILWNGIVTYYADSVKGRFTISRDNAKNEVYLQMNKLKPEDTAVYYCALDRAYQGRSFSAKEYEYWGQGTLVTVSS
Binder B10 has an EC50 (huNav1.7α (HEKa)) of 23 nM and an EC50 (huNav1.7α + β1 (HEKa/β1)) of 20 nM.
